The source of these data is patent US20060177448.

The target of the series is gDHER2(DIV)-IgG, P04626.

B1: purified catalytic domain of MT5-MMP (MMP-25) (protein)
chain: YALSGSVWKKRTLTWRVRSFPQSSQLSQETVRVLMSYALMAWGMESGLTFHEVDSPQGQEPDILIDFARAFHQDSYPFDGLGGTLAHAFFPGEHPISGDTHFDDEETWTFGSKDGEGTDLFAVAVHEFGHALGLGHSSAPNSIMRPFYQGPVGDPDKYRLSQDDRDGLQQLYG
Take B1: the “in vitro HER2 cleavage (sheddase) assay, stained gel” value was “All MT-MMPs except MMP-14 efficiently cleave gDHER2(DIV)-IgG substrate”.
